This note sets out measurements from PMC9064986, “Crystal structures of BMPRII extracellular domain in binary and ternary receptor complexes with BMP10” (Nature Communications, 2022).

First the molecules themselves.
B1: Recombinant human BMP10 growth factor (GF)-domain (R&D Systems) (ligand, UniProt O95393 317-424, looked up)
chain: NAKGNYCKRTPLYIDFKEIGWDSWIIAPPGYEAYECRGVCNYPLAEHLTPTKHAIIQALVHLKNSQKASKACCVPTKLEPISILYLDKGVVTYKFKYEGMAVSECGCR
notes: growth factor (GF) domain of human BMP10, the cut product of the BMP10 precursor; also called BMP10 GF-domain; source: bought: R&D Systems (cat. No. 2926-BP-025/CF)

One data set has as its target T1, BMPRII-Fc (R&D Systems) (UniProt Q13873 27-150).
T1 construct: BMPRII part of the bought Fc fusion; source: bought: R&D Systems (cat. No. 811-BR)
T1 sequence (looked up): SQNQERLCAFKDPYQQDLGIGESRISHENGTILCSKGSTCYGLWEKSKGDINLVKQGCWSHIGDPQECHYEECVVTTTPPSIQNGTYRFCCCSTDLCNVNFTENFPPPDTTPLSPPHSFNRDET
Description: SPR; BMP10 flowed over a BMPRII-Fc surface, with ALK1 present (Supplementary Fig 5c). The note with it: both partners purified. On the technique in general: Surface plasmon resonance follows binding to a sensor surface in real time, without labels.

In the next data set the target is T2, BMPRII ECD Q92H (human, UniProt Q13873-1 27-150, Q92H).
T2 construct: BMPRII (BMPR2) extracellular domain, human, amino acids 27-150 of the cDNA NM_001204; mutation found in PAH patients; source: E. coli Rosetta DE3, periplasm, purified (HisTrap, TEV cleavage, Superdex 75); not shown: DsbA, N-terminal, cleaved; His6, N-terminal, cleaved
T2 sequence (looked up): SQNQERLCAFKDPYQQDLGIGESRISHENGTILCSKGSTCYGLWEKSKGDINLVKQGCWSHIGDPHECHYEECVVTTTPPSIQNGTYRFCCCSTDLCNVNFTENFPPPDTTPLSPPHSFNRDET
Put plainly: SPR; Biacore T200; BMP10 GF-domain amine-coupled to a CM5 chip (1300 RU); ALK1-Fc, BMPRII-Fc or monomeric BMPRII WT and mutant ECDs injected at 40 ul/min; 10 mM HEPES pH 7.4, 150 mM NaCl, 3.4 mM EDTA, 0.5 mg/ml BSA, 0.005% P20, 25 °C; 1:1 model, KD = kd/ka. Particulars: both partners purified.

For data set [1], the target named is T3, BMPRII ECD E98K (human, UniProt Q13873-1 27-150, E98K).
T3 construct: BMPRII (BMPR2) extracellular domain, human, amino acids 27-150 of the cDNA NM_001204; mutation found in PAH patients; source: E. coli Rosetta DE3, periplasm, purified (HisTrap, TEV cleavage, Superdex 75); not shown: DsbA, N-terminal, cleaved; His6, N-terminal, cleaved
T3 sequence (looked up): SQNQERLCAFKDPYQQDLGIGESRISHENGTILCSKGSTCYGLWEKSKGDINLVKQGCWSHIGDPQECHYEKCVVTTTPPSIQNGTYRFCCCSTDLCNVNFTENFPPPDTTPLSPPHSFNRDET
The description is as above. Particulars: both partners purified.

In data set [2] the target is T4, BMPRII ECD N126S (human, UniProt Q13873-1 27-150, N126S).
T4 construct: BMPRII (BMPR2) extracellular domain, human, amino acids 27-150 of the cDNA NM_001204; mutation found in PAH patients; source: E. coli Rosetta DE3, periplasm, purified (HisTrap, TEV cleavage, Superdex 75); not shown: DsbA, N-terminal, cleaved; His6, N-terminal, cleaved
T4 sequence (looked up): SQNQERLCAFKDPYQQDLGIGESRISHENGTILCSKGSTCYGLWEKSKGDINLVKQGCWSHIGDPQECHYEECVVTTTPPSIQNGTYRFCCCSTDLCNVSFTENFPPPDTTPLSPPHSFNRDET
Described as above. Particulars: both partners purified.

Data set [3] deals with the molecule itself. Put plainly: crystal structure; BMP10:BMPRII ECD binary complex, two crystal forms (P212121, 1.48 Å; C2, 2.40 Å); complex refolded from denatured BMP10 GF-domain with excess BMPRII ECD.
Data set [4] has as its target T3, BMPRII ECD E98K. Put plainly: native gel or EMSA; prodomain displacement: Pro:BMP10 premixed with BMPRII WT or mutant ECDs at 1:2 and 1:5 molar ratio, 20 mM Tris, 150 mM NaCl, pH 7.4, 30 min at room temperature, 12% native PAGE, Coomassie, densitometry of Pro:BMP10/prodomain. The note with it: both partners purified. On the technique in general: Mobility shift assays separate free from complexed probe on a gel.

The target of data set [5] is T4, BMPRII ECD N126S. The data set is described as above. Particulars: both partners purified.
The target of data set [6] is B1. Description: SPR; Biacore T200; BMP10 GF-domain amine-coupled to a CM5 chip (1300 RU); ALK1-Fc, BMPRII-Fc or monomeric BMPRII WT and mutant ECDs injected at 40 ul/min; 10 mM HEPES pH 7.4, 150 mM NaCl, 3.4 mM EDTA, 0.5 mg/ml BSA, 0.005% P20, 25 °C; 1:1 model, KD = kd/ka. Particulars: both partners purified.

As for B1, in the data set with BMPRII-Fc (R&D Systems), the “fold weaker affinity with ALK1 present than without ALK1” value is about 5 fold. Moreover, the binding result with BMPRII ECD Q92H, with BMPRII ECD E98K [1] and with BMPRII ECD N126S [2] was “binds” throughout.

B2: BMP10 growth factor (GF)-domain from Pro:BMP10 made in HEK EBNA cells (ligand, human, UniProt O95393 317-424, looked up)
chain: NAKGNYCKRTPLYIDFKEIGWDSWIIAPPGYEAYECRGVCNYPLAEHLTPTKHAIIQALVHLKNSQKASKACCVPTKLEPISILYLDKGVVTYKFKYEGMAVSECGCR
notes: growth factor (GF) domain of human BMP10, cut by furin from the product of the full-length open reading frame (NM_014482); also called BMP10 GF-domain; source: HEK EBNA, full-length BMP10 cDNA co-transfected with FURIN, purified from conditioned medium as Pro:BMP10
Regarding B2, the binding result (in data set [3]; with BMPRII ECD E98K [4]; in the data set with BMPRII ECD N126S [5]) was “binds” throughout.

B3: BMPRII ECD G89A (domain or fragment, human, UniProt Q13873-1 27-150, looked up)
chain: SQNQERLCAFKDPYQQDLGIGESRISHENGTILCSKGSTCYGLWEKSKGDINLVKQGCWSHIADPQECHYEECVVTTTPPSIQNGTYRFCCCSTDLCNVNFTENFPPPDTTPLSPPHSFNRDET
notes: BMPRII (BMPR2) extracellular domain, human, amino acids 27-150 of the cDNA NM_001204; source: E. coli Rosetta DE3, periplasm, purified (HisTrap, TEV cleavage, Superdex 75); not shown: DsbA, N-terminal, cleaved; His6, N-terminal, cleaved
As for B3, the “fold reduction in affinity against WT BMPRII ECD” value (“fold reduction in affinity” below) in data set [6] was under 2 fold.

B4: BMPRII ECD G89E (domain or fragment, human, UniProt Q13873-1 27-150, looked up)
chain: SQNQERLCAFKDPYQQDLGIGESRISHENGTILCSKGSTCYGLWEKSKGDINLVKQGCWSHIEDPQECHYEECVVTTTPPSIQNGTYRFCCCSTDLCNVNFTENFPPPDTTPLSPPHSFNRDET
notes: as for B3
Take B4: the “fold reduction in affinity” value in data set [6] was over 100 fold.

B5: BMPRII ECD S107P (domain or fragment, human, UniProt Q13873-1 27-150, looked up)
chain: SQNQERLCAFKDPYQQDLGIGESRISHENGTILCSKGSTCYGLWEKSKGDINLVKQGCWSHIGDPQECHYEECVVTTTPPPIQNGTYRFCCCSTDLCNVNFTENFPPPDTTPLSPPHSFNRDET
notes: BMPRII (BMPR2) extracellular domain, human, amino acids 27-150 of the cDNA NM_001204; mutation found in PAH patients; source: E. coli Rosetta DE3, periplasm, purified (HisTrap, TEV cleavage, Superdex 75); not shown: DsbA, N-terminal, cleaved; His6, N-terminal, cleaved
As for B5, the “fold tighter binding than WT BMPRII ECD” value in data set [6] is about 4 fold.

B6: BMPRII ECD G89W (domain or fragment, human, UniProt Q13873-1 27-150, looked up)
chain: SQNQERLCAFKDPYQQDLGIGESRISHENGTILCSKGSTCYGLWEKSKGDINLVKQGCWSHIWDPQECHYEECVVTTTPPSIQNGTYRFCCCSTDLCNVNFTENFPPPDTTPLSPPHSFNRDET
notes: as for B3
With B6, the “fold reduction in affinity” value in data set [6] is over 100 fold.
